The values below come from the RNAGym collection of RNA variant scans (doi:10.7554/elife.80360).

The chains are these.
B1: Hairpin Ribozyme (parent)
chain: GUCCUCUUUCACGUGCGCGUGAAAGAGAGAAGUGAACCAGAGAAACACACGUUGUGGUAUAUUACCUGGUA

Variants of B1 are the subject of this series. Nature of the series: self-cleavage, relative activity (ratio to wild type); higher = more cleavage; co-transcriptional.
On to C6A U53A, for which the self-cleavage turned out to be 0.456.

Regarding C6A U53C, the self-cleavage is 0.517.

As to C6U A39C, the self-cleavage stood at 0.504.

For U7C A47G, the self-cleavage is 0.0534.

Consider U7C A45U, for which the self-cleavage came out at 0.231.

Turning to U5G C38U, the self-cleavage stood at 0.195.

In the case of C6U G34U, the self-cleavage came to 1.21.

Regarding U7A A45C, the self-cleavage is 0.232.

For C6A A45U, the self-cleavage was 0.179.

U5G U52A: the self-cleavage is 0.444.

Consider C6G A49C, for which the self-cleavage was found to be 0.0827.

Regarding C6A C37G, the self-cleavage worked out at 0.287.

As to C6A A30U, the self-cleavage worked out at 0.0998.

For C6G A36C, the self-cleavage turned out to be 0.307.

As for U5G G57C, the self-cleavage amounted to 0.0591.

Take C6A U55C: the self-cleavage came out at 0.243.

Turning to C6G G56U, the self-cleavage stood at 0.141.

Consider U7A U62C, for which the self-cleavage came to 0.222.

Consider U5G G69A, for which the self-cleavage came to 0.0952.

For U5G G69C, the self-cleavage is 0.104.

Regarding U5G G69U, the self-cleavage was 0.247.

Consider C6A U7A, for which the self-cleavage was found to be 0.648.

In the case of C6A U7G, the self-cleavage turned out to be 0.447.

For C6A A71G, the self-cleavage was determined as 0.606.

As for C6A G13C, the self-cleavage was 0.341.

As for C6A A44G, the self-cleavage turned out to be 0.113.

As for C6A A44C, the self-cleavage was determined as 0.0999.

In the case of C6A A44U, the self-cleavage was 0.167.

As to C6U U67G, the self-cleavage worked out at 0.271.

Take C6A A49U: the self-cleavage is 0.162.

With C6U A41C, the self-cleavage was 1.16.

Turning to C6U A35C, the self-cleavage amounted to 0.896.

With C6U A35G, the self-cleavage came out at 0.683.

In the case of C6U A31C, the self-cleavage amounted to 0.0728.

Take U5G G32A: the self-cleavage is 0.0653.

For the variant U5G G32U, the self-cleavage turned out to be 0.132.

Take C6G U58C: the self-cleavage was 0.484.

For the variant C6G U58G, the self-cleavage is 0.498.

For C6G U58A, the self-cleavage was 0.29.

Take C6U G21U: the self-cleavage worked out at 0.468.

Consider U5G U20C, for which the self-cleavage turned out to be 0.337.

For U7A A41G, the self-cleavage is 0.973.

Consider C6A A61C, for which the self-cleavage was 0.225.

With U7A A36G, the self-cleavage worked out at 1.03.

With U7A G21A, the self-cleavage is 0.706.

Consider U7A U53C, for which the self-cleavage turned out to be 1.07.

Regarding U7A U53A, the self-cleavage was 0.879.

Consider U5G U63C, for which the self-cleavage was determined as 0.116.

C6U U7C: the self-cleavage is 0.555.

As for U7C A43U, the self-cleavage stood at 0.151.

In the case of U7C C38G, the self-cleavage came out at 0.202.

On to C6A C10U, for which the self-cleavage was determined as 0.371.

For C6U G68U, the self-cleavage came out at 0.239.

On to C6U G68A, for which the self-cleavage was determined as 0.209.

Regarding C6U G68C, the self-cleavage was 0.154.

For the variant U5G U14G, the self-cleavage came out at 0.152.

On to U5G U14C, for which the self-cleavage was determined as 0.383.

U5G U14A: the self-cleavage was found to be 0.204.

Regarding U7A G51U, the self-cleavage was 0.866.

Take C6G G17U: the self-cleavage is 0.369.

Consider C6A A24C, for which the self-cleavage turned out to be 0.445.

For the variant C6U U62G, the self-cleavage turned out to be 0.102.

Take C6U U58A: the self-cleavage worked out at 0.66.

For the variant U7A U70C, the self-cleavage was 1.04.

Consider C6A G68U, for which the self-cleavage is 0.181.

For the variant C6A G68C, the self-cleavage came to 0.13.

As to C6G C16G, the self-cleavage turned out to be 0.423.

In the case of U7C C50U, the self-cleavage worked out at 0.523.

Regarding U5G U33G, the self-cleavage turned out to be 0.0612.

Turning to C6G G51A, the self-cleavage was determined as 0.682.

On to C6G G51C, for which the self-cleavage is 0.458.

As for U7A U14C, the self-cleavage is 0.772.

With C6G U8A, the self-cleavage stood at 0.263.

As to C6G U8G, the self-cleavage is 0.269.

In the case of C6G U8C, the self-cleavage worked out at 0.228.

Turning to C6U G29A, the self-cleavage stood at 0.158.

Consider U5G G27A, for which the self-cleavage was 0.216.

With U5G G27U, the self-cleavage was determined as 0.0644.

C6A G42U: the self-cleavage was determined as 0.223.

Take U5G G29U: the self-cleavage is 0.168.

For U7C A71U, the self-cleavage came to 0.592.

As for C6U G51A, the self-cleavage worked out at 0.816.

For the variant C6A G51C, the self-cleavage worked out at 0.531.

As for U5G G40A, the self-cleavage stood at 0.0651.

As for C6U A49U, the self-cleavage is 0.159.

For the variant C6U A49C, the self-cleavage was 0.0449.

Regarding U7A C48U, the self-cleavage worked out at 0.0656.

With U7A C48A, the self-cleavage came out at 0.165.

Turning to U7A C48G, the self-cleavage is 0.0789.

In the case of C6A C16G, the self-cleavage was found to be 0.351.

For C6A C16U, the self-cleavage amounted to 0.659.

As to C6G U70C, the self-cleavage amounted to 0.497.

For C6U U70C, the self-cleavage is 0.901.

Take C6U U70G: the self-cleavage is 0.588.

In the case of C6A G34U, the self-cleavage is 1.

As for U7C A31U, the self-cleavage stood at 0.112.

For the variant U7C A31G, the self-cleavage was determined as 0.525.

In the case of C6G G13C, the self-cleavage amounted to 0.381.

For C6G G13A, the self-cleavage stood at 0.45.

For the variant U7C C46A, the self-cleavage was 0.224.

Turning to U7C C46U, the self-cleavage amounted to 0.195.

Consider C6G A30U, for which the self-cleavage is 0.105.

Turning to C6U U8C, the self-cleavage stood at 0.686.

As to U7A C38G, the self-cleavage is 0.2.

For C6A U33A, the self-cleavage came to 0.129.

As for U7A A35C, the self-cleavage amounted to 1.28.

Regarding C6G C48G, the self-cleavage was determined as 0.115.

As to C6A U63A, the self-cleavage turned out to be 0.144.

Consider C6A U63C, for which the self-cleavage was determined as 0.191.

Take C6A A43G: the self-cleavage was determined as 0.223.

With C6A A43C, the self-cleavage came to 0.197.

U7A A39C: the self-cleavage came to 0.498.

For the variant U5G U55C, the self-cleavage was determined as 0.121.

For the variant U5G U55A, the self-cleavage was 0.139.

As for C6A C66A, the self-cleavage turned out to be 0.198.

For C6A C66U, the self-cleavage turned out to be 0.247.

With C6A C66G, the self-cleavage was determined as 0.109.

In the case of U7C A59G, the self-cleavage is 0.088.

Take U7A G15U: the self-cleavage was determined as 0.844.

For U7A G15C, the self-cleavage worked out at 1.06.

On to U7A G15A, for which the self-cleavage was 0.909.

On to C6U G56U, for which the self-cleavage was 0.144.

Turning to U5G G13C, the self-cleavage was 0.276.

Turning to U5G G13U, the self-cleavage was determined as 0.361.

In the case of U5G U67G, the self-cleavage was 0.164.

Consider U7C A28U, for which the self-cleavage is 0.514.

U7C A28C: the self-cleavage is 0.367.

Regarding C6U U33A, the self-cleavage is 0.148.

Regarding C6A U60C, the self-cleavage is 0.793.

For the variant C6A U60G, the self-cleavage came out at 0.4.

With C6G U9A, the self-cleavage was determined as 0.274.

For C6G U9G, the self-cleavage turned out to be 0.208.

Turning to C6G A43G, the self-cleavage turned out to be 0.0944.

Take C6G A43U: the self-cleavage came to 0.0915.

On to C6A U20A, for which the self-cleavage was found to be 0.551.

With C6A U20C, the self-cleavage was determined as 0.556.

Consider C6A A22U, for which the self-cleavage was 0.352.

For C6A A22C, the self-cleavage was determined as 0.541.

Regarding U5G U62G, the self-cleavage came to 0.145.

Consider U7A A28U, for which the self-cleavage was determined as 0.58.

As for C6A A47G, the self-cleavage came to 0.157.

As to C6G C37U, the self-cleavage worked out at 0.257.

On to U7C C48G, for which the self-cleavage is 0.145.

U7C C48A: the self-cleavage stood at 0.114.

Take U7C A44C: the self-cleavage was found to be 0.0427.

Consider U7C A44G, for which the self-cleavage was 0.0315.

In the case of U7A A26U, the self-cleavage was 0.202.

As to U7A A26C, the self-cleavage is 0.174.

For U7A C18G, the self-cleavage came to 0.802.

For U7A A22U, the self-cleavage was 0.814.

Take U7A A64G: the self-cleavage worked out at 0.525.

C6A C65A: the self-cleavage came to 0.492.

As for U5G G19U, the self-cleavage came to 0.274.

For U5G G19A, the self-cleavage was 0.243.

C6A U67A: the self-cleavage was 0.144.

As for U7A A44U, the self-cleavage stood at 0.117.

As to U7A A44G, the self-cleavage is 0.201.

As to U7A U67C, the self-cleavage worked out at 0.25.

Regarding U5G G68C, the self-cleavage stood at 0.

Regarding U5G G68U, the self-cleavage was 0.156.

Take U7C A41C: the self-cleavage was determined as 1.01.

On to C6G G32C, for which the self-cleavage amounted to 0.0741.

Regarding C6A U9A, the self-cleavage worked out at 0.417.

As to C6A U9C, the self-cleavage came to 0.262.

Take U7C C65A: the self-cleavage was 0.684.

Regarding U5G U9C, the self-cleavage was found to be 0.197.

As to U5G G21U, the self-cleavage amounted to 0.324.
